PMC10953399, “Escherichia coli DNA repair helicase Lhr is also a uracil‐DNA glycosylase”

Columns and labels:
[1] = target: Lhr (Escherichia coli MG1655, UniProt P30015 1-1538); test: EMSA; 5 mM EDTA; 12.5-200 nM protein, 12.5 nM DNA; 20 mM Tris pH 7.5, 10% glycerol, 100 ug/mL BSA, 25 mM DTT, 5 mM EDTA, 12.5 nM Cy5-DNA; 37 C 20 min then ice 10 min; 5% acrylamide TBE gel; conditions: protein: recombinant; tags: His6; label: 5' Cy5; single strand
[2] = target: T1, Lhr-CTD (Escherichia coli MG1655, UniProt P30015 876-1538); test: EMSA; 5 mM EDTA; 12.5-200 nM protein, 12.5 nM DNA; no stable complex; 20 mM Tris pH 7.5, 10% glycerol, 100 ug/mL BSA, 25 mM DTT, 5 mM EDTA, 12.5 nM Cy5-DNA; 37 C 20 min then ice 10 min; 5% acrylamide TBE gel; conditions: protein: recombinant; tags: pNH-TrxT vector (GU269914.1); label: 5' Cy5; single strand
T1 sequence: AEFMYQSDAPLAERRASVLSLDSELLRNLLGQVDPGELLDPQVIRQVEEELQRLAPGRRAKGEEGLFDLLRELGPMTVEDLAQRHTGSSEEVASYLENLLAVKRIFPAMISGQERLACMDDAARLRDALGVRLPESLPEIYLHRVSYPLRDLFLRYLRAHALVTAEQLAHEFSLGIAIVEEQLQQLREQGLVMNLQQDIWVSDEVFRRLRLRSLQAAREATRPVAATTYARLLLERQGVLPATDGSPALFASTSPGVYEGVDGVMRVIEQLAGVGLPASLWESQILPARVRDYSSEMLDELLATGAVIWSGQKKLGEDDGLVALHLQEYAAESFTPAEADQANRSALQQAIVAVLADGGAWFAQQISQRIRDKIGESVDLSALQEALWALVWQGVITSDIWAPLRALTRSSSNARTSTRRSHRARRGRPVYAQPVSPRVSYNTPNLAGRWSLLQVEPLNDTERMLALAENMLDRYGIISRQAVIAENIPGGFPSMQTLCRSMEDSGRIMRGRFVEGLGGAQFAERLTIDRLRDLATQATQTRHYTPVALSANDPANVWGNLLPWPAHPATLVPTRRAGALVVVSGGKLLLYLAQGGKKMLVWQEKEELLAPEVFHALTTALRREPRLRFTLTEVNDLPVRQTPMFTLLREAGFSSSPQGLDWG

TCGGATCCTCTAGACAGCTCCATGATCACTGGCACTGGTAGAATTCGGC (ssDNA) [Cy5-ssDNA (EMSA)]: binds [1]; no binding [2].
